Changes are numbered by the printed parent chain. Where no end group is shown, it is not given here.

This is an account of results in patent US20040077828A1 (US Dept. of Health and Human Services, published 2004).

First the molecules themselves.
T1: naturally occurring sFRP-1 present in the cultures
T1 sequence (Q8C4U3 32-314, species assumed, looked up): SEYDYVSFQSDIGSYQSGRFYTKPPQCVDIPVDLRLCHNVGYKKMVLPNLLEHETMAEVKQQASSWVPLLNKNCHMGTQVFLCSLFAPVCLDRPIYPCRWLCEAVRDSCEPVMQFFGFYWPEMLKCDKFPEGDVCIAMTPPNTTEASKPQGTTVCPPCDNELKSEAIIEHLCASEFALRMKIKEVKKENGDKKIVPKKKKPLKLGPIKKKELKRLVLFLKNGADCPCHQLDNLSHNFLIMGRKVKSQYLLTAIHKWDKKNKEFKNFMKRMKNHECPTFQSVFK

B1: A-C2-expressing M13 phage (peptide linked to gene III coat protein) (other)
chain: QGTLVDGRWLQL
modifications: not fully specified
notes: also called A-C2 phage; not shown: M13 phage gene III coat protein
B2: recombinant human secreted Frizzled-related protein-1 (sFRP-1) (other)
chain: T1 sequence (Q8C4U3 32-314, species assumed, looked up) with S14P, V32A, M76A, T143A, E211D, R214K, F218Y, N236H, R269K
notes: also called full-length sFRP-1
B3: B-B9 M13 phage (peptide linked to gene III coat protein) (other)
chain: LVDGRWLYNPHH
modifications: not fully specified
notes: the text gives 27; also called B-B9 phage; not shown: M13 phage gene III coat protein
B4: recombinant soluble RANKL (PeproTech) (ligand)
chain: IRAEKAMVDGSWLDLAKRSKLEAQPFAHLTINATDIPSGSHKVSLSSWYHDRGWAKISNMTFSNGKLIVNQDGFYYLYANICFRHHETSGDLATEYLQLMVYVTKTSIKIPSSHTLMKGGSTKYWSGNSEFHFYSINVGGFFKLRSGEEISIEVSNPSLLDPDQDATYFGAFKVRDID
notes: Reagent of the ELISA assays; also called sRANKL
B5: ΔCRD-H/M (other)
single chain: EYDYVSFQSDIGPYQSGRFYTKPPQIAMTPPNATEASKPQGTTVCPPCDNELKSEAIIEHLCASEFALRMKIKEVKKENGDKKIVPKKKKPLKLGPIKKKDLKKLVLYLKNGADCPCHQLDNLSHHFLIMGRKVKSQYLLTAIHKWDKKNKEFKNFMKKMKNHECPTFQSVFKQAYVEQKLISEEDLNSAVDHHHHHH
notes: the sheet prints H/M, the text M/H; also called human sFRP-ΔCRD-M/H; sFRP-1 derivative lacking the CRD
B6: A-E4-expressing M13 phage (peptide linked to gene III coat protein) (other)
chain: VVDGRWVQGLED
modifications: not fully specified
notes: Printed as VVDGRWVQGLED; also called A-E4 phage; not shown: M13 phage gene III coat protein

Test [1] addresses B2. The test is described as follows: phage ELISA, sFRP-1-coated against BSA-coated wells. The method, then:
Amplified phage recovered from bacterial broth after this first enrichment step were subjected to two more rounds of panning in wells coated with sFRP-1 as described in the previous paragraph, except that the phage were incubated for only 2 hours and 1 hour in the second and third panning steps, respectively. After the third round of panning, phage obtained from the sFRP-1-coated well were titered and seeded on a lawn of bacteria to permit isolation of phage from 200 separate colonies. Bacteria from each of these colonies were grown in broth, pelleted by centrifugation and phage retrieved in the supernatant. Each of these phage supernatants was tested for binding to sFRP-1-coated ELISA wells versus wells only coated with the BSA blocking solution. Phage were detected in this assay with primary antibody directed against phage coat protein (Pharmacia Biotech, Uppsala, Sweden, #27-9411-01) and standard detection reagents.
To identify peptide sequences that bind sFRP-1, ˜25×10⁹ phages from a library containing a diverse repertoire of twelve-amino acid residue segments linked to the gene III coat protein of M13 phage were screened. After three successive rounds of panning for phage that bound to ELISA wells preincubated with sFRP-1, the phage preparation selected for its ability to bind sFRP-1 was titered and then plated on a lawn of bacteria. Phage from 200 separate colonies of lysed bacteria were picked, grown in bacterial broth overnight, recovered in supernatant, and tested for their ability to bind preferentially to sFRP-1 versus BSA in an ELISA. Phage that bound at least five times more avidly to sFRP-1 than BSA-coated wells were subjected to nucleotide sequence analysis to determine the identity of the peptide sequence responsible for this binding specificity.
(In general: An ELISA detects its analyte on a solid surface through an enzyme-linked reagent.)

The target of test [2] is T2, alkaline phosphatase itself (UniProt P00634 22-471 = phosphatase, limits assumed).
T2 construct: Control for the peptide/AP fusions; also called AP
T2 sequence (P00634 22-471 limits assumed): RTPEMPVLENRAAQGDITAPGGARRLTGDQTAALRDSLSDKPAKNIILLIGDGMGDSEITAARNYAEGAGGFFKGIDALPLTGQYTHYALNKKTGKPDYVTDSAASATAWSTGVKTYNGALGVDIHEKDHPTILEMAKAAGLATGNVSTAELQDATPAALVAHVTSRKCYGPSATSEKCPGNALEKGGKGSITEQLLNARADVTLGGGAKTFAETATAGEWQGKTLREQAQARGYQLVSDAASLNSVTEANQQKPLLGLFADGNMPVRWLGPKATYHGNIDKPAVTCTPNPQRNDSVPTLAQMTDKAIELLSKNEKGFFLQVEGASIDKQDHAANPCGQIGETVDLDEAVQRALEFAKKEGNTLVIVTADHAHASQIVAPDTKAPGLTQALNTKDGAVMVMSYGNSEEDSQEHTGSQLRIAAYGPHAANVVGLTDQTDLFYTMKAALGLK
Kind of test: ELISA, sFRP-1-coated wells against BSA wells.

For the next test, the target named is T3, bovine serum albumin (bovine, UniProt P02769 25-607).
T3 construct: Control coat; also called BSA
T3 sequence (P02769 25-607 limits assumed): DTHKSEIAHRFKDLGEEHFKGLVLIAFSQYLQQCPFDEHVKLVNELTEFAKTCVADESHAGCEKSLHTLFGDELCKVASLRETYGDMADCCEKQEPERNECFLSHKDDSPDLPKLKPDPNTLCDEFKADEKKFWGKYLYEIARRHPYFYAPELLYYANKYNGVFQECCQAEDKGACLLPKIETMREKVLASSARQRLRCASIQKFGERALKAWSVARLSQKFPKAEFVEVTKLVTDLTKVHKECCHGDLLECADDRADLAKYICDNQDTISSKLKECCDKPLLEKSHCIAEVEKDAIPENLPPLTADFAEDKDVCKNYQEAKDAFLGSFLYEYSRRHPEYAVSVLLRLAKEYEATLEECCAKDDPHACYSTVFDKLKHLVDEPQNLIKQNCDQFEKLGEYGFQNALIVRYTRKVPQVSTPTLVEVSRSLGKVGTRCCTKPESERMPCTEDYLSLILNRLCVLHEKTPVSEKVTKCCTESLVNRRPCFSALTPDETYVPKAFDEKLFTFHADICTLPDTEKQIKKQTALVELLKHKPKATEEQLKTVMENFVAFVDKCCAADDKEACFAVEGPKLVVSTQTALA
Kind of test: ELISA: serial dilutions of soluble RANKL on wells treated with BSA only; detection with RANKL antibody, AP-coupled secondary antibody and pNPP. The method, then: (§1) ELISA experiments were generally performed as previously described (Uren et al., J. Biol. Chem. 275:4374-4382, 2000), with modifications depending on the sFRP binding partner to be tested. Typically, wells were coated with 0.5 or 1 μg of sFRP-1, blocked with BSA (0.2%, 1%, or 4%) and then incubated with putative binding partner overnight at room temperature. When investigating the binding of peptide/AP chimeras, after aspiration of bacterial broths, wells were washed and incubated with p-nitrophenolphosphate (pNPP). Color development was determined at 405 nm with an ELISA reader. For competition experiments, soluble peptides were preincubated with peptide/AP chimeras in bacterial broth for 30 min at room temperature prior to transfer into ELISA wells coated with sFRP-1 or BSA. When testing RANKL binding to sFRP-1, serial dilutions of soluble RANKL were assayed in replicate. Following overnight incubation at room temperature, RANKL solutions were aspirated and bound RANKL was detected by sequential incubations with primary antibody to RANKL, secondary antibody coupled with AP and pNPP. Similar experimental designs were employed when other TNFα family members were examined for binding to sFRPs, and when sFRP-1 derivatives or sFRP-2 were the binding targets for RANKL.
(§2) The possibility that sFRP-1 (SEQ ID NO: 3) and RANKL interact directly with each other was tested using an ELISA assay. […]

For test [3], the target named is B2. The test is described as follows: ELISA: serial dilutions of soluble RANKL on sFRP-1-coated, BSA-blocked wells; detection with RANKL antibody, AP-coupled secondary antibody and pNPP. The method, then:
as §1, §2

The target in test [4] is T1, naturally occurring sFRP-1 present in …. The test is described as follows: cell-based or functional assay.
In test [5] the target is B2. The test is described as follows: isothermal titration calorimetry, A-C2 (200 uM) injected into sFRP-1 (10 uM) in PBS. How it is done:
(§3) ITC experiments were performed with a VP-ITC MicroCalorimeter MicroCal, LLC, Northhampton, Mass.) according to the manufacturer's User Manual. In brief, 6 μl aliquots of A-C2 (200 μM, dissolved in PBS) were injected at regular intervals into a chamber containing sFRP-1 (10 μM, also in PBS). Increases in temperature of the chamber resulting from the binding of A-C2 and sFRP-1 were determined as a measure of the heat produced by the binding reaction. Several parameters, included enthalpy and dissociation constant, were calculated from these measurements. This technique is commonly used to quantify the thermodynamic properties of binding interactions between proteins and peptides.
(§4) Binding was evident, as heat was generated when aliquots of AC2 solution were added to a chamber containing sFRP-1 dissolved in PBS. By contrast, no heat was produced when AC2 was added to a chamber containing only PBS.
(In ITC the heat of successive injections is recorded.)

Test [6] has as its target B2. Kind of test: Isothermal titration calorimetry: A-C2 peptide (200 µM in PBS) injected into sFRP-1 (10 µM in PBS); no unit printed in the box. How it is done: as §3, §4
Test [7] concerns the target B2. Kind of test: Isothermal titration calorimetry: A-C2 peptide (200 µM in PBS) injected into sFRP-1 (10 µM in PBS). The method, then:
as §3, §4

Test [8] concerns the target B4. The test is described as follows: ELISA: wells coated with sFRP-1 or derivative, incubated with soluble RANKL, bound RANKL detected; triplicates. How it is done: FIG. 12 is a graph of the binding avidity of several sFRP-1 deletion mutants for RANKL in ELISA experiments. Wells were coated either with full-length sFRP-1 or with any one of a set of epitope-tagged sFRP-1 deletion mutants (Uren et al., J Biol Chem 275:4374-4382, 2000) or BSA control, and then sequentially incubated with soluble RANKL and reagents to detect RANKL bound to the wells. The results shown are the mean +/−S.D. of triplicate measurements from a representative experiment.
ELISA experiments were generally performed as previously described (Uren et al., J. Biol. Chem. 275:4374-4382, 2000), with modifications depending on the sFRP binding partner to be tested. Typically, wells were coated with 0.5 or 1 μg of sFRP-1, blocked with BSA (0.2%, 1%, or 4%) and then incubated with putative binding partner overnight at room temperature. When investigating the binding of peptide/AP chimeras, after aspiration of bacterial broths, wells were washed and incubated with p-nitrophenolphosphate (pNPP). Color development was determined at 405 nm with an ELISA reader. […] Following overnight incubation at room temperature, RANKL solutions were aspirated and bound RANKL was detected by sequential incubations with primary antibody to RANKL, secondary antibody coupled with AP and pNPP. […]

As for B1, the “Specificity (sFRP-1/BSA)” value in test [1] was 10 ratio of binding to sFRP-1 wells over BSA wells.

On to B2, for which the binding result in test [2] was “no binding”.

On to B3, for which the “Specificity (sFRP-1/BSA)” value in [1] is 5 ratio of binding to sFRP-1 wells over BSA wells.

In general, EC50 (read off the curve) refers to the concentration at which the effect is half-maximal. Take B4: the binding result in the test with bovine serum albumin is recorded as “no binding (tested: 10 ug/ml)”. For the same molecule, the “EC50 (read off the curve)” value in test [3] is around 1 mg/L.

The Kd is the concentration at which binding is half-saturated. As for QGTLVDGRWLQL (also called AC2 peptide) [A-C2 synthetic 12-mer peptide], in test [4], the “TRAP+ multinucleated cells, osteoblast and adult spleen cell co-cultures” value is 10 fold increase. Further, the Kd in test [5] was 3.9 µM. For the same molecule, in test [6], the ΔH was -3620 and the ΔS was 12.6. Further, the N in [7] came out at 1.14.

With B5, the binding result in [8] is “no binding”.

Consider B6, for which, in [1], the “Specificity (sFRP-1/BSA)” value was 10 ratio of binding to sFRP-1 wells over BSA wells.
